Reference: the DeepSol protein solubility set

Assay: soluble on expression in E. coli; label from the status in PepcDB or PDB records

Sequence	soluble on expression in E. coli
MIFPVARYALRWLRRPEDRAFSRAAMEMALRGVRKVLCVAEKNDAAKGIADLLSNGRMRRREGLSKFNKIYEFDYHLYGQNVTMVMTSVSGHLLAHDFQMQFRKWQSCNPLVLFEAEIEKYCPENFVDIKKTLERETRQCQALVIWTDCDREGENIGFEIIHVCKAVKPNLQVLRARFSEITPHAVRTACENLTEPDQRVSDAVDVRQELDLRIGAAFTRFQTLRLQRIFPEVLAEQLISYGSCQFPTLGFVVERFKAIQAFVPEIFHRIKVTHDHKDGIVEFNWKRHRLFNHTACLVLYQLCVEDPMATVVEVRSKPKSKWRPQALDTVELEKLASRKLRINAKETMRIAEKLYTQGYISYPRTETNIFPRDLNLTVLVEQQTPDPRWGAFAQSILERGGPTPRNGNKSDQAHPPIHPTKYTNNLQGDEQRLYEFIVRHFLACCSQDAQGQETTVEIDIAQERFVAHGLMILARNYLDVYPYDHWSDKILPVYEQGSHFQPSTVEMVDGETSPPKLLTEADLIALMEKHGIGTDATHAEHIETIKARMYVGLTPDKRFLPGHLGMGLVEGYDSMGYEMSKPDLRAELEADLKLICDGKKDKFVVLRQQVQKYKQVFIEAVAKAKKLDEALAQYFGNGTELAQQEDIYPAMPEPIRKCPQCNKDMVLKTKKNGGFYLSCMGFPECRSAVWLPDSVLEASRDSSVCPVCQPHPVYRLKLKFKRGSLPPTMPLEFVCCIGGCDDTLREILDLRFSGGPPRASQPSGRLQANQSLNRMDNSQHPQPADSRQTGSSKALAQTLPPPTAAGESNSVTCNCGQEAVLLTVRKEGPNRGRQFFKCNGGSCNFFLWADSPNPGAGGPPALAYRPLGASLGCPPGPGIHLGGFGNPGDGSGSGTSCLCSQPSVTRTVQKDGPNKGRQFHTCAKPREQQCGFFQWVDENTAPGTSGAPSWTGDRGRTLESEARSKRPRASSSDMGSTAKKPRKCSLCHQPGHTRPFCPQNR	soluble
MLNILDIITDWIKEILRDCIMGNLDGMFDQINNEVGEVAANVGTTPAAWNAGVFSMIRNLSDT	not soluble
MSLSGEPYNFEYTFSKSHDIGVSLTIGKRNYMEDEVLIAGNIKEGIDLVGIFDGHNGSDAAKLAAKLFKEEIKHLEEEFDWITLFEKVHSTIIKSTESGTTATLALIYSNKITLVHCGDSTAFALKKRKLKKLTHDQNTSSLEEVSSIKKNGGVVEFNGGILRVNGQISVTRSLGDKKFHPPLTCIPEVIELESDDITSLVLTSDGISSVLQLDEIEAVMNSEMNVEEKSSTLRNQSFIREGKDNMSVIVVSFNEGHHHHHH	soluble
MGSDKIHHHHHHMLRSMYSGISGLKNFQTKLDVVGNNIANVNTFGYKKGRVTFKDLVSQSVGSASGNGGGVGGANPKQVGLGASMATVDSVSNQGALQNTGRTLDVAISGEGFFQIQTADGIRYARSGNFYTDLDGNLVTGDGNYVIGSDNAGPLGQPTIPLGGGYKTINIPANAQNLSIGKDGLVTYVDPAGTLQQAGYISLANFPNPGGLEKSGSNMYSISQNSGQPTSATPSTNGLGQLTSGTLEMSNVDLSEEFTEMIIAQRGFQANTRIITTSDQILEELVNLKR	not soluble
MSLRTGKTNVIALVLSVDEELMGFTSQMVFGITEVLSTTQYHLVVTPHIHAKDSMVPIRYILETGSADGVIISKIEPNDPRVRFMTERNMPFVTHGRSDMGIEHAFHDFDNEAYAYEAVERLAQCGRKRIAVIVPPSRFSFHDHARKGFNRGIRDFGLTEFPIDAVTIETPLEKIRDFGQRLMQSSDRPDGIVSISGSSTIALVAGFEAAGVKIGEDVDIVSKQSAEFLNWIKPQIHTVNEDIKLAGRELAKALLARINGEAAETLQSISGPVWSSMAPKEGHHHHHH	soluble
MGSDKIHHHHHHMHSAALLQKVDELPRLPKAIAELLDVVNNEDSTVKAVSEKLSHDPVLSARVLRLANSARFGCSREVGTIDDAVVRLGMQTLRTLVIASAVVGAVPKVEGFDLADFWGNTFEVAIICQELAKRLGTLPEEAFTCGILHSIGELLIVNGDPAVAATISAAVADGADRNLMEKELLGYDNAEIGALLAQSWKFTPHLVKGIQFQNHPKSAEPYSKLAGMLAMAKQIAADWDKIPDDERTSWLAQINILAGIKVDLGGLAEKLAKMHGQGMEMGKQLA	not soluble
MFKFLMIISMSKHIKRAAKNREDLLEAAVEMFKTHGMMVPLQVIIDHANVGRATFYRNFADRKMLVYALLEQSLVKLKQRTQLYQTYPDGLIRLIQSHVNHLNHLSALMEYWRVLDYSDTSLQALIQQHQRIIQPLIDQAILHKVCRPDFNFEDYRSIVTMLSSSFRGHTEQEQIRMASRVIDLLLNGICLNQEESHG	not soluble
MPHNSVKHSTRLDVIPLKTAEKHPNSQRRFHVMSKPGGSKCNLDCQYCFYLHKDELLHQPKQPMMDDTTLEAFIKSYIESQDGHEIVFSWQGGEPTLLGLDYFKKIVQLQNKYRPSGVKIENDLQTNGILLNDEWCQFLKDNGFLVGLSIDGPKELHDKYRVTRSGKPTFNLVMAAAKRLQEHHVPFNSLVVVNRHNAKHPLDVYRFLTKELGATYIQFTPCVEAKDFTTTAPQFWNETMIPNKGSELAKPGHPMSIVTDWSVDPDDWGNFLNTVFVEWVNNDLGRVLVNLFETAVAQVMGKESQLCVTAEFCGKGLAMEHNGDVFSCDHYVYPEYKLGNIHDRGLNEFAFSIRQHGFGMAKRDSLPSYCKSCPHLKLCWGECPKNRLINTPNGEPGLNYLCSGIRAFFDESLPMLTGLSVLLQRQENTQK	not soluble
MAFGRRTGKDGGKRKAGHAPVQPADEHVRPEDTVVASAAAASGVEDQEELQGPFDIDDFDDPSVAVLARLDLGSVLIPMPAAGQVQVELTESGVPSAVWVITPNGRYSIAAYAAPKTGGLWREVAGELADSLRKDSAKVSIKDGPWGREVIGIAAGVVRFIGVDGYRWMIRCVVNGPQETVDALTEEAREALADTVVRRGDTPLPVRTPLPVHLPEPMAAQLREAAAAQADTQRQAAAGVARRGAQGSAMQQLRSTTGG	soluble
MDGTRTSLDIEEYSDTEVQKNQVLTLEEWQDKWVNGKTAFHQEQGHQLLKKHLDTFLKGKSGLRVFFPLCGKAVEMKWFADRGHSVVGVEISELGIQEFFTEQNLSYSEEPITEIPGTKVFKSSSGNISLYCCSIFDLPRTNIGKFDMIWDRGALVAINPGDRKCYADTMFSLLGKKFQYLLCVLSYDPTKHPGPPFYVPHAEIERLFGKICNIRRLEKVDAFEERHKSWGIDCLFEKLYLLTEK	not soluble
MKWEMGLQEEYIELIKAGKKKIEGRLYDEKRRQIKPGDIIIFEGGKLKVKVKGIRVYSSFKEMLEKEGIENVLPGVKSIEEGVKVYRQFYDEEREKKYGVVAIEIEPIE	soluble
MEISTLLALSPLDGRYQQKVAALRPFFSEYALIRNRIHVEIEWFKALGNTPALTGASSLSTGAVVQLDQLVENFSVTDAEAVKSIETRTNHDVKAVEYWLKEKLTGDQETAAISE	not soluble
MTKNKMEAKIDELINNDPVWSSQNESLISKPYNHILLKPGKNFRLNLIVQINRVMNLPKDQLAIVSQIVELLHNSSLLIDDIEDNAPLRRGQTTSHLIFGVPSTINTANYMYFRAMQLVSQLTTKEPLYHNLITIFNEELINLHRGQGLDIYWRDFLPEIIPTQEMYLNMVMNKTGGLFRLTLRLMEALSPSSHHGHSLVPFINLLGIIYQIRDDYLNLKDFQMSSEKGFAEDITEGKLSFPIVHALNFTKTKGQTEQHNEILRILLLRTSDKDIKLKLIQILEFDTNSLAYTKNFINQLVNMIKNDNENKYLPDLASHSDTATNLHDELLYIIDHLSEL	soluble
LVLEGGGMRGLYTAGVLDAFLEAGIKVDGVVSVSAGALFGVNYLSNQPKRALRYNKRFMGDRRYMSFWSWLTTGNFVNKEFSYYKVPMELDVFDQDAFAESGVPFYVVATDIKTGKPDYIKIDHVFEQMEALRASSALPLVSEIVEYKGKRYMDGGLADSLPI	not soluble
VDICNHALLVGFGRVGSLLGEKLMAQGIPLVVVETSRTRVDELRERGISAVLGNAANEEIMELAHLDCARWLLLTIPNGYEAGEIVASAREKCPNIEIIARAHYDDEVDYIIDRGANQVVMGEREIARAMLRLLETPPAG	not soluble
MEEVYASELRGREPETVDTLFLDNTQGGVIGGINEKLTKLELLSMVKCGLTTLKGMPVLPALNYLDLSDNELGDDASFDVLIKCAPEIKKITLSGNRLTLDNVRTLKMLPNLMELDLSNNSSLGLLDDYRVKMFEMIPSLKILDGCDVDGEEVEEEFAAGEGAEDSDEGDSDEDGPGLSYLNKSQFSDDETDDYVVPEAGDAETRGAKRAASADCDEPEAKKSAE	soluble
MGSDKIHHHHHHMESITLTADLDALAKTSAFITAAAERCGLDERATWQVQLAVDEAVTNVIQHAYDPDQPGDFTLSWQCHDQRFIVTVRDHGRQFDPSTVPVPDITSPLEERQVGGLGIYLITRLMDEVHFEFSPQGGNLLTMVKYLPSDQAEEANEVVVIPINDRIDALTAPRLSKTVNEQISQGARQIVLDFSNVPFLSSSGLRALLLIRKELMTLGGELRLAALQPQVHEVFTITGFTQVFNIHPSVTEARAAFSQRR	not soluble
MGSDKIHHHHHHMQNPFTTTFSKTPEYTYIHTEKTEEILENFIYDNPSESVYKITGVRGSGKTVILAKVEEELRTNESRYINWLVFDVNPARDILGQIAAMLVKAGFGSQDKKTTGINLSATVMGTGGGIGYTAENNNNFFDIGVEVETMIQAAQKKGKKILIGIDEVSKSEEMIKFASEYGRWLRAGYPVYFVCTGLYENIQELSNVKNLTFFRRAATVKTEPLNMIRMTEMYKSKLDIDSNEAREMAKITKGYAYAFQELGVLYFKKKLDELLEDILPKLKAELFAYSYEKIWEEMTEMDRFLAGLLTEKEEYKREEVLKLMGEKSGSYSMYRDRLIKRGILNSRQGYISLALPYFGEYIKEYC	not soluble
MKQADQTYRGQFKDDLYDGAGQLELADGSRYQGLFAKGKPNGAGVRSDASGNQFSGHFVNGQLQGAGTYDSVDGEQYIGEFKDNRLEGRGRYENADGDVWIGEFKDGSLIGEGELLGSDGSHYKGEFADWRLSGQGSLQLADGSKYIGGFLNDAYHGHGRLILPSGKVESGTWANGVRVRDQNGKLLPDPLDLALLNQGRLLDEALVRVPRSAPPIQLYSLVVAGDGQQSVFLREADYVSRMLKVRFGARGQVTLVNHRDHMATRPMATRENLSRAAATLAERSGPEDLVFIYLTSHGSQDHQLVLDQPRLQLADLAADELATALAPLKDRDKVIVISACYSGGYIAPLKDERTLIMTAARADRVSFGCSEEADFTYFGDALFAEALNQTDDLKQAFELARASVAEREQREGFEASEPQLWAPPAVLEHWHQLRQQQAEEALRNATQANVSKQAKMPGTHLEHHHHHH	soluble
SYSYVYIYMPTWREDKRNILEIIDFDRLNQLCIKNNNLFLFRLHPNTEINLDMLVSYSNLRIIDSSCDIYPILPFTDVLITDYSSIYYDYMLIPNKQILLFPFDEEEYCTFNRDLAFDYKIYTPGIRIYSFEALLEIVESKKNLNIKEIKVIKKLFWKGRNESIIDRIIN	not soluble
TPDWRVSLRGSLAYNRNKVISLYYTDRLYTSETALTPDYEVGKAYNMLYGLKSLGINPITGLPVFQGADGSEISPTQNPARENFIVLGHSTPPYSGTFNLNFSYRNFDLDMDFYYVFGGIKPYNYSYVRSADSANKNAIQKQLENMWFHRGDEGKIYHSPFYISPANASLQQPNTETVGKSDYLKLAMLSLRYRVPHTFLEKNCHFIKYANIAFQASNLFMITPYKESDPETGSLAGAMQPVLTINLSLTF	not soluble
MDRVRNLLEQIQGRLDELNKAERKVAEVILLNPQMATRLSIAALAQAAKVSEPTVNRFCRSFSVSGYPELKLQLAQSLASGAAYVSRAVEADDNPEAYTQKIFGSAIASLDSACQQLDPALVSKSVDMLIQARQIHFFGLGASAPVALDAQHKFFRFNLAVTAHADVLMQRMIASVAHTGELFVIISYTGRTRELVEVARIARANGASVLGLTAAGSPLAQASTVSLNIPLPEDTDIYMPMTSRIIQLTVLDVLATGMTLRRGVDFQPHLRKIKESLNDSRYPIEDQG	not soluble
